Results on 5 molecules are retold here after paper PMC7679444, “Regulation of cytokine signaling through direct interaction between cytokine receptors and the ATG16L1 WD40 domain” (Nature Communications, 2020).

The labels stand for the following.
B1: TMEM59 peptide 268–280 with decreased E272-Y277 distance (ELY) (peptide, UniProt Q9BXS4 268-280, looked up)
peptide: Tds-YVPSELYGDL
modifications: reading uncertain
notes: TMEM59 residues 268-280 with native residues between E272 and Y277 deleted so that one (L) is left; only the changed stretch is printed; source: synthetic peptide on microarray, ordered from JPT (Germany)
B2: TMEM59 peptide 268–280 with decreased Y268-E272 distance (YE) (peptide, UniProt Q9BXS4 268-280, looked up)
peptide: Tds-YEKLSIYGDL
modifications: reading uncertain
notes: TMEM59 residues 268-280 with the native residues between Y268 and E272 deleted; only the changed stretch is printed; also called YE (Y268-E272); source: synthetic peptide on microarray, ordered from JPT (Germany)
B3: TMEM59 peptide (residues 268–280), wild type (peptide, UniProt Q9BXS4 268-280, looked up)
peptide: Tds-YVPSEKLSIYGDL
modifications: reading uncertain
notes: TMEM59 intracellular domain, residues 268-280; also called active TMEM59 peptide; source: synthetic peptide on microarray, ordered from JPT (Germany)
B4: TMEM59 peptide 268–280 with increased Y268-E272 distance (YVAPAASE) (peptide, UniProt Q9BXS4 268-280, looked up)
peptide: Tds-YVAPAASEKLSIYGDL
modifications: reading uncertain
notes: TMEM59 residues 268-280 with extra alanines between Y268 and E272; only the changed stretch is printed; also called YVAPAASE (Y268-E272); source: synthetic peptide on microarray, ordered from JPT (Germany)
B5: TMEM59 peptide 268–280 with increased E272-Y277 distance (EKAALASAIY) (peptide, UniProt Q9BXS4 268-280, looked up)
peptide: Tds-YVPSEKAALASAIYGDL
modifications: reading uncertain
notes: TMEM59 residues 268-280 with extra alanines between E272 and Y277; only the changed stretch is printed; source: synthetic peptide on microarray, ordered from JPT (Germany)

Where no end group is shown, it is not given here. Tds = not defined here

This experiment deals with T1, GST-HA-ATG16L1(231–607) (human, UniProt Q676U5 231-607).
T1 construct: ATG16L1, human, residues 231-607 (results and legend); the methods name the construct 230-607; includes the WD40 domain (WDD, 320-607); Limits differ between results (231-607) and methods (230-607); also called GST-HA-ATG16L1-230-607; recombinant protein that includes the WDD; source: HEK-293T, retrovirally transduced, purified (GSH-agarose, eluted with reduced GSH, concentrated)
T1 sequence (Q676U5 231-607): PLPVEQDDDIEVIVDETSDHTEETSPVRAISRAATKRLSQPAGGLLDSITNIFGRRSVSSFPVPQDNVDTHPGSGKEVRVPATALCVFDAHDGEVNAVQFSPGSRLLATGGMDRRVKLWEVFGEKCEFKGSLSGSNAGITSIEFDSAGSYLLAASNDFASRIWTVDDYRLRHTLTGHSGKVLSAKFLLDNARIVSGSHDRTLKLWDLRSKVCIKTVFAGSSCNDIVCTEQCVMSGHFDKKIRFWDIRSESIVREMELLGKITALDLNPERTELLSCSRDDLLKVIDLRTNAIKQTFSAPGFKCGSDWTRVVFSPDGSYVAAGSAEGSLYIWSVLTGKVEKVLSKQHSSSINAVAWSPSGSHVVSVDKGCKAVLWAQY
Briefly: peptide or protein array; peptides immobilised on glass slides through the N-terminal end with a Tds spacer (JPT); GST-HA-ATG16L1 fragment in PBS/0,05% Tween-20 with 5% BSA, 20-800 nM, 2 h at RT plus overnight at 4 °C; detected with anti-HA and anti-GST and Cy5-labelled secondary antibodies; binding normalised to the wild-type peptide. The conditions noted are these: both partners purified.
Turning to B1, the binding result is “binds”. For B2, the binding result was “binds”. Next, B3: “binds”. For B4 the value was “binds”; for B5, “binds”.
